Source: publication PMC2647743 (Bioconjugate chemistry, 2008)

Legend:
[1] = Biodistribution; conditions: ICR SCID, mouse, in vivo, 185 kBq, total radioactivity, tumor uptake, PC-3 tumor bearing SCID mice, 15 min post-injection
[2] = system: PC-3 tumor xenografts; test: Biodistribution; conditions: PC-3 tumor bearing SCID mice; for tumor retention: initial (15 min) uptake retained in the tumor tissue: 24 hr post-injection relative to the 15 min values

CSCC[C@H](NC(=O)[C@H](CC(C)C)NC(=O)[C@H](Cc1c[nH]cn1)NC(=O)CNC(=O)[C@@H](NC(=O)[C@H](C)NC(=O)[C@H](Cc1c[nH]c2ccccc12)NC(=O)[C@H](CCC(N)=O)NC(=O)CCC(=O)NCCOCCOCCNC(=O)CN1CCN(CC(=O)O)CCN(CC(=O)O)CCN(CC(=O)O)CC1)C(C)C)C(N)=O [In-DOTA-8-ADS-BBN(7-14)NH2]
tissue uptake at 0.25 h [1]: 6.21 ± 1.57 %ID/g
tumor retention: initial (15 min) uptake retained in the tumor tissue [2]: 19.8%

CSCC[C@H](NC(=O)[C@H](CC(C)C)NC(=O)[C@H](Cc1cnc[nH]1)NC(=O)CNC(=O)[C@@H](NC(=O)[C@H](C)NC(=O)[C@H](Cc1c[nH]c2ccccc12)NC(=O)[C@H](CCC(N)=O)NC(=O)CCCCCCCNC(=O)CN1CCN(CC(=O)O)CCN(CC(=O)O)CCN(CC(=O)O)CC1)C(C)C)C(N)=O [In-DOTA-8-AOC-BBN(7-14)NH2]
tissue uptake at 0.25 h [1]: 6.66 ± 2 %ID/g
Heart ([2]; 1 hr p.i., i.v.): 0.19 ± 0.20 %ID/g
Liver ([2]; 4 hr p.i., i.v., n = 5): 0.15 ± 0.02 %ID/g
Lung ([2]; 24 hr p.i., i.v., n = 5): 0.07 ± 0.03 %ID/g
tumor retention: initial (15 min) uptake retained in the tumor tissue [2]: 11.4%

CSCC[C@H](NC(=O)[C@H](CC(C)C)NC(=O)[C@H](Cc1cnc[nH]1)NC(=O)CNC(=O)[C@@H](NC(=O)[C@H](C)NC(=O)[C@H](Cc1c[nH]c2ccccc12)NC(=O)[C@H](CCC(N)=O)NC(=O)c1ccc(NC(=O)CN2CCN(CC(=O)O)CCN(CC(=O)O)CCN(CC(=O)O)CC2)cc1)C(C)C)C(N)=O [In-DOTA-AMBA-BBN(7-14)NH2]
tissue uptake at 0.25 h [1]: 6.36 ± 1.6 %ID/g
tumor retention: initial (15 min) uptake retained in the tumor tissue [2]: 26.6%
